# In US12338277:
# Columns and labels:
# Test in all cases: cell-based or functional assay
# [1] = target: HIV-1 Env of pseudovirus 246F C1G (HIV-1)
# [2] = target: HIV-1 Env of pseudovirus 249M B10 (HIV-1)
# [3] = target: HIV-1 Env of pseudovirus 3016.v5.c45 (HIV-1)
# [4] = target: HIV-1 Env of pseudovirus 3415.v1.c1 (HIV-1)
# [5] = target: HIV-1 Env of pseudovirus BJOX010000.06.2 (HIV-1)
# [6] = target: HIV-1 Env of pseudovirus BJOX028000.10.3 (HIV-1)
# [7] = target: HIV-1 Env of pseudovirus C2101.c01 (HIV-1)
# [8] = target: HIV-1 Env of pseudovirus CAP210.2.00.E8 (HIV-1)
# [9] = target: HIV-1 Env of pseudovirus CNE17 (HIV-1)
# [10] = target: HIV-1 Env of pseudovirus CNE58 (HIV-1)
# [11] = target: HIV-1 Env of pseudovirus Ce0393_C3 (HIV-1)
# [12] = target: HIV-1 Env of pseudovirus Ce1086_B2 (HIV-1)
# [13] = target: HIV-1 Env of pseudovirus Du156.12 (HIV-1)
# [14] = target: HIV-1 Env of pseudovirus Du422.1 (HIV-1)
# [15] = target: HIV-1 Env of pseudovirus HIV-0013095-2.11 (HIV-1)
# [16] = target: HIV-1 Env of pseudovirus QH0692.42 (HIV-1)
# [17] = target: HIV-1 Env of pseudovirus REJO4541.67 (HIV-1)
# [18] = target: HIV-1 Env of pseudovirus SC422661.8 (HIV-1)
# [19] = target: HIV-1 Env of pseudovirus THRO4156.18 (HIV-1)
# [20] = target: HIV-1 Env of pseudovirus X1254_c3 (HIV-1)
# [21] = target: HIV-1 Env of pseudovirus X1632_S2_B10 (HIV-1)
# [22] = target: HIV-1 Env of pseudovirus ZM233M.PB6 (HIV-1)
# [23] = target: HIV-1 envelope of pseudovirus 191084 B7-19 (HIV-1)
# [24] = target: HIV-1 envelope of pseudovirus 191821_E6_1 (HIV-1)
# [25] = target: HIV-1 envelope of pseudovirus 231966.c02 (HIV-1)
# [26] = target: HIV-1 envelope of pseudovirus 263-8 (HIV-1)
# [27] = target: HIV-1 envelope of pseudovirus 3103.v3.c10 (HIV-1)
# [28] = target: HIV-1 envelope of pseudovirus 62357_14_03_4589 (HIV-1)
# [29] = target: HIV-1 envelope of pseudovirus 89-F1_2_25 (HIV-1)
# [30] = target: HIV-1 envelope of pseudovirus BJOX010000.06.2 (HIV-1)
# [31] = target: HIV-1 envelope of pseudovirus BJOX015000.11.5 (HIV-1)
# [32] = target: HIV-1 envelope of pseudovirus BJOX028000.10.3 (HIV-1)
# [33] = target: HIV-1 envelope of pseudovirus CAP45.2.00.G3 (HIV-1)
# [34] = target: HIV-1 envelope of pseudovirus CNE5 (HIV-1)
# [35] = target: HIV-1 envelope of pseudovirus CNE52 (HIV-1)
# [36] = target: HIV-1 envelope of pseudovirus CNE8 (HIV-1)
# [37] = target: HIV-1 envelope of pseudovirus Ce0393_C3 (HIV-1)
# [38] = target: HIV-1 envelope of pseudovirus P1981_C5_3 (HIV-1)
# [39] = target: HIV-1 envelope of pseudovirus Q23.17 (HIV-1)
# [40] = target: HIV-1 envelope of pseudovirus R2184.c04 (HIV-1)
# [41] = target: HIV-1 envelope of pseudovirus REJO4541.67 (HIV-1)
# [42] = target: HIV-1 envelope of pseudovirus T250-4 (HIV-1)
# [43] = target: HIV-1 envelope of pseudovirus T251-18 (HIV-1)
# [44] = target: HIV-1 envelope of pseudovirus T255-34 (HIV-1)
# [45] = target: HIV-1 envelope of pseudovirus THRO4156.18 (HIV-1)
# [46] = target: HIV-1 envelope of pseudovirus WEAU_d15_410_787 (HIV-1)
# [47] = target: HIV-1 envelope of pseudovirus ZM109F.PB4 (HIV-1)
# [48] = target: HIV-1 envelope of pseudovirus ZM197M.PB7 (HIV-1)
# [49] = target: HIV-1 envelope spike of pseudovirus BaL.26 (HIV-1)
# [50] = target: HIV-1 envelope spike of pseudovirus SC422661.8 (HIV-1)
substance,measurement,setting,value
PGT121 (antibody),IC80 (TZM-bl neutralization),[1],0.287 µg/mL
same,IC80 (TZM-bl neutralization),[2],> 50 µg/mL
same,IC80 (TZM-bl neutralization),[3],> 50 µg/mL
same,IC80 (TZM-bl neutralization),[4],> 50 µg/mL
same,IC80 (TZM-bl neutralization),[5],> 50 µg/mL
same,IC80 (TZM-bl neutralization),[6],> 50 µg/mL
same,IC80 (TZM-bl neutralization),[7],> 50 µg/mL
same,IC80 (TZM-bl neutralization),[8],> 50 µg/mL
same,IC80 (TZM-bl neutralization),[9],> 50 µg/mL
same,IC80 (TZM-bl neutralization),[10],> 50 µg/mL
same,IC80 (TZM-bl neutralization),[11],> 50 µg/mL
same,IC80 (TZM-bl neutralization),[12],0.006 µg/mL
same,IC80 (TZM-bl neutralization),[13],0.033 µg/mL
same,IC80 (TZM-bl neutralization),[14],0.131 µg/mL
same,IC80 (TZM-bl neutralization),[15],> 50 µg/mL
same,IC80 (TZM-bl neutralization),[16],8.54 µg/mL
same,IC80 (TZM-bl neutralization),[17],> 50 µg/mL
same,IC80 (TZM-bl neutralization),[18],0.46 µg/mL
same,IC80 (TZM-bl neutralization),[19],> 50 µg/mL
same,IC80 (TZM-bl neutralization),[20],0.199 µg/mL
same,IC80 (TZM-bl neutralization),[21],> 50 µg/mL
same,IC80 (TZM-bl neutralization),[22],8.98 µg/mL
same,IC50 (TZM-bl neutralization),[23],0.042 µg/mL
same,IC50 (TZM-bl neutralization),[24],> 50 µg/mL
same,IC50 (TZM-bl neutralization),[25],> 50 µg/mL
same,IC50 (TZM-bl neutralization),[26],3.35 µg/mL
same,IC50 (TZM-bl neutralization),[27],0.042 µg/mL
same,IC50 (TZM-bl neutralization),[28],1.04 µg/mL
same,IC50 (TZM-bl neutralization),[29],> 50 µg/mL
same,IC50 (TZM-bl neutralization),[30],> 50 µg/mL
same,IC50 (TZM-bl neutralization),[31],> 50 µg/mL
same,IC50 (TZM-bl neutralization),[32],> 50 µg/mL
same,IC50 (TZM-bl neutralization),[33],0.086 µg/mL
same,IC50 (TZM-bl neutralization),[34],> 50 µg/mL
same,IC50 (TZM-bl neutralization),[35],3.74 µg/mL
same,IC50 (TZM-bl neutralization),[36],> 50 µg/mL
same,IC50 (TZM-bl neutralization),[37],> 50 µg/mL
same,IC50 (TZM-bl neutralization),[38],0.004 µg/mL
same,IC50 (TZM-bl neutralization),[39],0.01 µg/mL
same,IC50 (TZM-bl neutralization),[40],> 50 µg/mL
same,IC50 (TZM-bl neutralization),[41],3.61 µg/mL
same,IC50 (TZM-bl neutralization),[42],0.001 µg/mL
same,IC50 (TZM-bl neutralization),[43],> 50 µg/mL
same,IC50 (TZM-bl neutralization),[44],6.72 µg/mL
same,IC50 (TZM-bl neutralization),[45],> 50 µg/mL
same,IC50 (TZM-bl neutralization),[46],0.083 µg/mL
same,IC50 (TZM-bl neutralization),[47],7.89 µg/mL
same,IC50 (TZM-bl neutralization),[48],> 50 µg/mL
same,IC50 (TZM-bl neutralization assay),[49],0.021 µg/mL
same,IC80 (TZM-bl neutralization assay),[49],0.081 µg/mL
same,IC50 (TZM-bl neutralization assay),[50],0.263 µg/mL
same,IC80 (TZM-bl neutralization assay),[50],0.714 µg/mL
